From patent US20050170334A1 (published 2005)

T1: OVA (UniProt P01012 2-386)
T1 sequence: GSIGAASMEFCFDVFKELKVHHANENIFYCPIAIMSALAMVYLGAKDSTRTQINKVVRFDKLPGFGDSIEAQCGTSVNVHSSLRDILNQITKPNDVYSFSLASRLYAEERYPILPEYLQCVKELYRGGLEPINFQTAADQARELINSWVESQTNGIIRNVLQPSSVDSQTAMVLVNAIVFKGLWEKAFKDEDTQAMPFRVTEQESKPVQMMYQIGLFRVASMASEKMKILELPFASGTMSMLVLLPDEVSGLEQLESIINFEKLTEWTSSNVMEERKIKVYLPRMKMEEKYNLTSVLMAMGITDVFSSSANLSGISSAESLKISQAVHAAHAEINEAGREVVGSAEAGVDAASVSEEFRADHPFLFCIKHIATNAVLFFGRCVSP

B1: human anti-M2 antibody C40 (antibody, V domains shown)
VH: QLQLQESGPGLVKPSETLSLTCTVSGGSISSSFYYCGWIRQPPGKGLEWIGSIYYRGSTYYNPSLKSRVTISVDTSKNQFSLKLSSVTAADTAVYYCARRVTMVRGVKGDYFDYWGQGTLVTVSS
VL: DIQMTQSPSSLSASVGDRVTITCRASQGISSWLAWYQQKPEKVPKSLIYAASSLQSGVPSRFSGSGSGTDFTLTISSLQPEDFATYYCQQYNYYPLTFGGGTKVEIKR
B2: L66 (antibody, V domains shown)
VH: EVQLVESGGGVVRPGGSLRLSCAASGFTFDDYGMSWVRQAPGKGLEWVSGINWNGGSTGYADSVKGRFTISRDNAKNSLYLQMNSLRAEDTALYYCARDRVTMVRGVIMDYYGMDVWGQGTTVTVSS
VL: QTVVTQEPSLTVSPRGTVTLTCSSSTGAVTSGYYPGWFQLKPGQAPMSLIYSARKKHSWTPARFSGSLLGGKAALTLSGVQPEDEAEYYCLLYYGGAYVFGTGTKVTVLG
B3: N547 (antibody, V domains shown)
VH: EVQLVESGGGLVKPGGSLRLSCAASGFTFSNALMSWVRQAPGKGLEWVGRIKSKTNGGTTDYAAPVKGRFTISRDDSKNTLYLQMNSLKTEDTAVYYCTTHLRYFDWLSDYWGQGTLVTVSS
VL: QSVLTQPPSMSAAPGQKVTISCSGSSSNIGNNYISWYQQLPGTAPKVLIYDNNKRPSGIPDRFSGSKSGTSATLGITGLQTGDEADYYCGSWDSSLSAGVFGTGTKVTVLG
B4: C40G1 (antibody, V domains shown)
VH: B1 VH
VL: B1 VL

Assays:
OVA = biological target: T1, OVA; experiment: ELISA
BSA = biological target: T2, BSA (UniProt P02769 25-607); experiment: ELISA
T2 construct: carrier for immunization
T2 sequence (P02769 25-607 limits assumed): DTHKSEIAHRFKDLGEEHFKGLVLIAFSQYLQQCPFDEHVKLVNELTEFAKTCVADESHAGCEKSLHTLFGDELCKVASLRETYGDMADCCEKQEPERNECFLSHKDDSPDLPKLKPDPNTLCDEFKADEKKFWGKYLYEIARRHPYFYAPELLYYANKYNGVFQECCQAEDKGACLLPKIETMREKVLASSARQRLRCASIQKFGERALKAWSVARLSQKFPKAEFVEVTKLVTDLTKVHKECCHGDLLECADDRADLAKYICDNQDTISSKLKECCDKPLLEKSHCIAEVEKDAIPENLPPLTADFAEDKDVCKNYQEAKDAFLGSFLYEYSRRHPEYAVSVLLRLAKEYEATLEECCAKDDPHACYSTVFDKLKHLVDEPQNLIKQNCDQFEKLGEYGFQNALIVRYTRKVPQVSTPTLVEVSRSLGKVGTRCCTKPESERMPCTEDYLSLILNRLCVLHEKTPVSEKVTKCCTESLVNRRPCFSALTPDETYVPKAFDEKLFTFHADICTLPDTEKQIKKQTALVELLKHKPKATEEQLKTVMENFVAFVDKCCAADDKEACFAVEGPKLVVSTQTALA

Binder	binding result (OVA)	binding result (BSA)
B1	no binding (tested: OD450 below 0.1)	no binding (tested: OD450 below 0.1)
B2	no binding (tested: OD450 below 0.1)	no binding (tested: OD450 below 0.1)
B3	no binding (tested: OD450 below 0.1)	no binding (tested: OD450 below 0.1)
B4	no binding (tested: OD450 below 0.1)	no binding (tested: OD450 below 0.1)
